Measured values taken from IntAct's records for PubMed 24469400.

B1: Syntaxin-4 (Rattus norvegicus (Rat)), Q08850 (parent)
chain: MRDRTHELRQGDNISDDEDEVRVALVVHSGAARLSSPDDEFFQKVQTIRQTMAKLESKVRELEKQQVTILATPLPEESMKQGLQNLREEIKQLGREVRAQLKAIEPQKEEADENYNSVNTRMKKTQHGVLSQQFVELINKCNSMQSEYREKNVERIRRQLKITNAGMVSDEELEQMLDSGQSEVFVSNILKDTQVTRQALNEISARHSEIQQLERSIRELHEIFTFLATEVEMQGEMINRIEKNILSSADYVERGQEHVKIALENQKKARKKKVMIAICVSVTVLILAVIIGITITVG

Variants of: B1
Conditions: with vamp2_rat Vamp2, P63045
vamp2_rat Vamp2, P63045, sequence (P63045 whole entry): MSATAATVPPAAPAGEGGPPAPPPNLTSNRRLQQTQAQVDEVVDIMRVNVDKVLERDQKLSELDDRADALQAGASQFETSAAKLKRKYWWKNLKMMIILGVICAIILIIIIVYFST

Row | effect of a mutation on the interaction | Variant
1 | increasing interaction strength | MRDRTHELRQGDNISDDEDEVRVALVVHSGAARLSSPDDEFFQKVQTIRQTMAKLESKVRELEKQQVTILATPLPEESMKQGLQNLREEIKQLGREVRAQLKAIEPQKEEADENYNSVNTRMKKTQHGVLSQQFVELINKCNSMQSEYREKNVERIRRQLKITNAGMVSDEEAAQMLDSGQSEVFVSNILKDTQVTRQALNEISARHSEIQQLERSIRELHEIFTFLATEVEMQGEMINRIEKNILSSADYVERGQEHVKIALENQKKARKKKVMIAICVSVTVLILAVIIGITITVG [L173A;E174A]
